Source: the supplement of paper PMC9732359
± gives the uncertainty stated by the source.

Assay: protein stability index of a GFP-peptide fusion (yeast GPS) (PSI 1-4); higher = more stable; sorted into four equal gates, so the index is relative within each strain
Method in brief: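 Plasmids in a pooled yeast library fused tiled 17-residue yeast protein peptides downstream of GFP and also expressed Cherry. Mid-log cultures grown without leucine were sorted into four equal gates by GFP/Cherry fluorescence ratio. Each gate's plasmids were PCR-amplified and Illumina-sequenced, and reads were matched to strains by barcodes. The protein stability index is derived by multiplying each gate's read frequency by its gate number and summing the results.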

| Sequence | protein stability index (doa10∆) | protein stability index (pdr5∆) | protein stability index (san1∆) | protein stability index (ubr1∆) |
| --- | --- | --- | --- | --- |
| NADFQKPWFATVNGQAR [FAS1] | 2.41 ± 0.066 | 2.37 ± 0.11 | 2.45 ± 0.082 | 2.87 ± 0.1 |
| TYANVLIPCKYLNRHAD [RPN7] | 1.1 ± 0.08 | 1.25 ± 0.089 | 1.18 ± 0.13 | 1.19 ± 0.095 |
| YIQERLKSLNDIETQLC [MED11] | 2.83 ± 0.083 | 2.68 ± 0.091 | 2.77 ± 0.1 | 2.8 ± 0.07 |
| PELLDSLAILGMNLLSN [SWI1] | 2.1 ± 0.061 | 2.21 ± 0.073 | 2.05 ± 0.079 | 1.92 ± 0.066 |
| EKPAVKSYASLLAQLNG [RPT3] | 2.8 ± 0.082 | 2.6 ± 0.097 | 2.81 ± 0.082 | 2.76 ± 0.057 |
| YQELIKNGALVSNILSA [YJL039C/NUP192] | 1.76 ± 0.072 | 2.2 ± 0.057 | 1.82 ± 0.075 | 2.09 ± 0.062 |
| LDENLNSLSSNLSSLIV [YJL041W/NSP1] | 2.41 ± 0.04 | 2.54 ± 0.061 | 2.66 ± 0.065 | 2.6 ± 0.044 |
| NNSSITLRCSVVEACGN [YCS4] | 1.78 ± 0.064 | 1.23 ± 0.056 | 1.13 ± 0.14 | 1.25 ± 0.041 |
| DELEDDTLNETNLKMKR [RRP43] | 3.18 ± 0.093 | 3.25 ± 0.082 | 3.26 ± 0.075 | 3.36 ± 0.098 |
| SPNRLRVRTDDSVLLNR [YML031W/NDC1] | 2.78 ± 0.22 | 3.25 ± 0.21 | 2.99 ± 0.14 |  |
| NNSKSRYPMNLLEFIID [ECM29] | 2.5 ± 0.086 | 2.69 ± 0.052 | 2.64 ± 0.075 | 2.92 ± 0.097 |
| GLPTDAYVAIEQVKDDG [RPN8] | 2.61 ± 0.076 | 1.92 ± 0.1 | 2.59 ± 0.23 | 2.34 ± 0.08 |
| KTLKLARAPKYASKAVP [RPL25] | 2.29 ± 0.06 | 2.31 ± 0.056 | 2.53 ± 0.067 | 2.19 ± 0.035 |
| LDPTDDEGHVLKLENLH [SIN4] |  | 3.16 ± 0.23 | 3.12 ± 0.13 |  |
| FLRQKICLMTLIETVFV [RPN9] | 1.37 ± 0.12 | 1.32 ± 0.12 | 1.06 ± 0.14 | 1.94 ± 0.28 |
| FTNIISRNKALELNLSV [YJL039C/NUP192] | 2.64 ± 0.11 | 2.78 ± 0.087 | 2.62 ± 0.12 | 2.69 ± 0.088 |
| AVHNGDRKHVAALRTVK [RPL9B] | 2.09 ± 0.064 | 2.23 ± 0.076 | 2.36 ± 0.061 | 2.71 ± 0.049 |
| EDEENSDVLLFQLPTTC [RGR1] | 2.63 ± 0.044 | 2.27 ± 0.035 | 2.63 ± 0.041 | 2.35 ± 0.024 |
| PLIKKIKYEPRFEKAVK [SMC3] | 2.75 ± 0.072 | 2.72 ± 0.098 | 2.53 ± 0.13 | 2.48 ± 0.079 |
| DKFFTLSAENIEERLVA [SCL1] | 3.01 ± 0.074 | 3.01 ± 0.084 | 3.06 ± 0.082 | 3.02 ± 0.069 |
| NVESAGAMTPEEIFFKS [RPC40] | 3.04 ± 0.074 | 3.31 ± 0.085 | 3.17 ± 0.054 | 3.27 ± 0.045 |
| RALYTPFLLMELHKKLV [YDL116W/NUP84] | 1.82 ± 0.094 | 1.45 ± 0.087 | 1.29 ± 0.22 | 1.26 ± 0.13 |
| LQLLPLQKAVRGHVLQF [SNF2] | 1.22 ± 0.029 | 1.29 ± 0.041 | 1.23 ± 0.081 | 1.16 ± 0.026 |
| TGESWVKLTYNSPSSAL [YDL088C/ASM4] | 2.31 ± 0.058 | 1.75 ± 0.055 | 2.08 ± 0.067 | 2.02 ± 0.04 |
| SKKDFKIIDNPKSFLKK [YMR129W/POM152] | 3.05 ± 0.082 | 3.35 ± 0.095 | 3.08 ± 0.07 | 3.17 ± 0.092 |
